Source: US20260035459A1, “HUMANIZED CHIMERIC ANTIGEN RECEPTORS TARGETING THE B-CELL RECEPTOR OF CHRONIC LYMPHOCYTIC LEUKEMIA AND USES THEREOF” (AVA LIFESCIENCE GMBH, priority 2022, published 2026)
Numbering of substitutions follows the chain as printed.

B1: mAb01-01: murine monoclonal anti-IGLV3-21^R110 antibody, VL SEQ ID NO: 44, VH SEQ ID NO: 45 (antibody, listed as Mus musculus, V domains shown)
VH: QVQLQQSGPGLVQPSQSLSITCTVSGFSLTSYGIHWVRQSPGKGLEWLGVIWRGGGTDSNAAFMSRLSITKDNSKSQVFFKMNSLQADDTAIYYCARSRYDEEESMNYWGQGTSVTVSS
VL: QIVLTQSPASLSASVGETVTITCRASGNIHSYLAWYQQKQGKSPQLLVYNAKTLADGVPSRFSGSGSGTQYSLKINSLQPEDFGSYYCQHFWNTPPTFGAGTKLELK
B2: H1: humanized anti-IGLV3-21^R110 CAR, VL SEQ ID NO: 7, VH SEQ ID NO: 11, scFv SEQ ID NO: 13 (protein)
scFv: EIVLTQSPSSLSASVGDSVTITCRASGNIHSYLAWYQQKPGKAPKLLIYNAKTLADGVPSRFSGSGSGTQYTLTISSLQPEDFATYYCQHFWNTPPTFGAGTKLELKGGGGSGGGGSGGGGSGGGGSQVQLQESGPGLVKPSETLSLTCTVSGFSLTSYGIHWIRQSPGRGLEWIGVIWRGGGTDSNAAFMSRVTISVDTSKSQVSLKLGSVTAADTAIYYCARSRYDEEESMNYWGQGTSVTVSS
B3: H2: humanized anti-IGLV3-21^R110 CAR, VL SEQ ID NO: 7, VH SEQ ID NO: 12, scFv SEQ ID NO: 14 (protein)
scFv: B2 scFv with V194I, V198R, S203T

Experiments:
[1] = system: wild-type IGLV3-21G110-variant; experiment: FACS binding assay on BCR-expressing TKO cells (germline control); design: species or system human; conditions: fluorescently labeled anti-mouse IgG
Text: (§1) The screening for positive clones was not performed by enzyme linked immunosorbent assay (ELISA) as usual. Since the target structure is a membrane-bound receptor, it is of central importance to validate the binding of the potential antibodies in a cellular system, i.e. while largely preserving the cell physiological states native to this cell type. First, groups of pooled supernatants were examined for binding events using fluorescence activated cell sorting (FACS) analysis. For this purpose different BCR variants were expressed on the surface of a triple knockout (TKO) cell line, which cannot express BCR itself.
(§2) For reconstitution with a ‘BCR of interest’, the corresponding sequence coding for the VH was fused with a human IgM constant segment by polymerase chain reaction (PCR), and heavy (HC) and light (LC) chains were cloned into respective expression vectors each having a CMV promoter. These were introduced into the packaging cell line (Phoenix cell line) by lipofection. After 36 hours of incubation, the virus supernatant was removed and used for spinfection of the TKO cells. BCR expression was determined using anti-IgM and anti-LC antibodies on FACS. For this purpose, some cells were taken and stained with 5 μl antibody each in a total volume of 100 μl in PBS. Both the work to extract the supernatants and the spinfection of the TKO are widely known procedures and known to experts. […]

[2] = molecular target: T1, IGHV3-21/IGLV3-21^R110 BCR (Homo sapiens, UniProt P80748); experiment: FACS binding assay on BCR-expressing TKO cells; conditions: fluorescently labeled anti-mouse IgG
T1 construct: a complete light chain (LC) DNA covering IGLV3-21^R110 were synthesized; expressed in transfected cells; host or cells: murine triple knockout (TKO) pro-/pre-B cells, retroviral spinfection
Text: as §1, §2

[3] = system: OCI-LY1 R110 cell line (OCIR110); experiment: In-vitro cytotoxicity assay (IncuCyte Caspase-3/7), OCI-LY1 R110; format: cell-based, human; conditions: construct 1: IgG4 hinge spacer; construct 2: additional CH2-CH3 spacer
Protocol: Neoepitope (i.e. cancer-specific peptide) engineered cell line OCI-LY1 R110 expressing the IGLV3-21^R110 light chain as part of a BCR with induced R110 point mutation was generated from OCI-LY1 wt cells. First, OCI-LY1 wt cells were cultivated in RPMI 1640 Medium, GlutaMAX™ Supplement (Thermo Fisher, Cat. 61870044) supplemented with 20% (v/v) FBS (Life Technologies, Cat. 10500064) and 1% (v/v) penicillin-streptomycin (10,000 U/mL) (Thermo Fisher, Cat. 15140122) at 37° C. in a humidified atmosphere including 5% CO2. […]
Target cells seeded at 2×10^4 cells/well in a 96-well plate were co-incubated with effector cells at effector-to-target (E: T) ratio 5:1 in complete CTL medium consisting of RPMI 1640 Medium GlutaMAX™ Supplement (Thermo Fisher, Cat. 61870044) supplemented with 10% (v/v) FBS (Life Technologies, Cat. 10500064), 1% (v/v) penicillin-streptomycin (10,000 U/mL) (Thermo Fisher, Cat. 15140122), 50 μM β-mercaptoethanol (Thermo Fisher, Cat. 31350010) and 50 U/mL IL-2 (StemCell, Cat. 78036.1). CAR T cell mediated tumor cell killing was assessed using the IncuCyte@ Caspase-3/7 Green Reagent for Apoptosis (Sartorius, Cat. 4440) according to the manufacturer's instructions. Read out of dead (-green-fluorescent) target cells was performed on an
IncuCyte@ S3 (Sartorius) after 2 to 16 hours or 4 to 36 hours. The killing graphs were calculated by the IncuCyte@ software (version 2022A). […]

Sequence of wild-type IGLV3-21G110-variant (as listed by the source): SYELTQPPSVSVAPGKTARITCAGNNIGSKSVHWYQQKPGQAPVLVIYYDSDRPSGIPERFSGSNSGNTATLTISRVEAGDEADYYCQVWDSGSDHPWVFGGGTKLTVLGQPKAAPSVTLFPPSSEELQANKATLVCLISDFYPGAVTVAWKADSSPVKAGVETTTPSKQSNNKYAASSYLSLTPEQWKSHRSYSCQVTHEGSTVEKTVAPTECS
Sequence of wild-type IGLV3-21G110-variant (P01871 with tags, fused parts or gaps partner): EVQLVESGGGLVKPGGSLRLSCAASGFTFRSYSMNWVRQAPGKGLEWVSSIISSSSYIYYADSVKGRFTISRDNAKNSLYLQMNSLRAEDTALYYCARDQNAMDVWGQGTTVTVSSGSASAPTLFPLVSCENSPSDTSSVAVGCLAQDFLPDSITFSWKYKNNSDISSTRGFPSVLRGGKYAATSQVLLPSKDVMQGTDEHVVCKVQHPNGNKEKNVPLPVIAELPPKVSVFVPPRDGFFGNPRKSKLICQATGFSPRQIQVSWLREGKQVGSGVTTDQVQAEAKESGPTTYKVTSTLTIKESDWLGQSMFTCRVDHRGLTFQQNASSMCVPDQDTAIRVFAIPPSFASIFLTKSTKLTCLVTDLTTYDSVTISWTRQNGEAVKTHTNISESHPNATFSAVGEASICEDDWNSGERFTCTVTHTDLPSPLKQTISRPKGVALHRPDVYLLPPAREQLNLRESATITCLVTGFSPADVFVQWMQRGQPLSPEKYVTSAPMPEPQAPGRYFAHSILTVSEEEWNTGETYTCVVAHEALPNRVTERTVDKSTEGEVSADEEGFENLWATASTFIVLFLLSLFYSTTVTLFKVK
Sequence of wild-type IGLV3-21G110-variant (P11911 29-220 partner): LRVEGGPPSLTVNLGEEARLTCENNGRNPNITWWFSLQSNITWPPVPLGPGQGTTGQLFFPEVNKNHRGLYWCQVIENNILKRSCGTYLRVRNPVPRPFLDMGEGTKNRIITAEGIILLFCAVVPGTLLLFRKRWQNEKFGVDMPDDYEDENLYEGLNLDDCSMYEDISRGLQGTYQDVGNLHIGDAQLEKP
Sequence of wild-type IGLV3-21G110-variant (P15530 26-228 partner): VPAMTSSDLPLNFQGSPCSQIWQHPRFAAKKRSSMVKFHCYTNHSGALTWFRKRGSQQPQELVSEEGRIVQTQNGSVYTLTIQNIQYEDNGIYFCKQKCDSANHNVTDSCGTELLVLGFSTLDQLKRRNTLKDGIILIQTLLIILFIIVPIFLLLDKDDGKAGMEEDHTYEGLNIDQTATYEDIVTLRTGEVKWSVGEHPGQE
T1 sequence (P80748 with tags, fused parts or gaps V22E/Q35K/G42A/V66I/D68Y/S112G): as the sequence (as listed by the source) above, with G110R counted along it

Molecule | binding to wild-type IGLV3-21G110-variant [1] | binding to IGLV3-21^R110-BCRs [2] | killing capacity, CAR construct 1 versus CAR construct 2 [3]
B1 | without any detectable binding | high specificity and cross-reactivity | –
B2 | – | – | remarkably higher in CAR construct 1 than in CAR construct 2
B3 | – | – | remarkably higher in CAR construct 1 than in CAR construct 2
